The source of these data is the supplement of paper PMC9112550, “Optimization of the antimicrobial peptide Bac7 by deep mutational scanning” (BMC Biology, 2022).
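Further: peptides expressed intracellularly from a pBAD plasmid library in pooled LB shake-flask culture, induced with 0.3% L-arabinose, DNA abundance read by NGS, three biological replicates, DESeq2 with apeglm shrinkage.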

For the data set, the system named is Escherichia coli TOP10. Kind of data set: shrunken log2 fold change of peptide-encoding DNA abundance (4.5 h post-induction vs induction); higher = less antimicrobial activity (less host growth inhibition). Conditions: time post-induction: 4.5 h; library: site-saturation at positions 5, 18, 19, 20.
RRIRSRPPRLPRPRPRPDHYPRP: the “shrunken log2 fold change” value was -0.341.

For RRIRGRPPRLPRPRPRPVVNPRP, the “shrunken log2 fold change” value worked out at 0.0184.

Turning to RRIRWRPPRLPRPRPRPAEDPRP, the “shrunken log2 fold change” value is 0.711.

For the sequence RRIRPRPPRLPRPRPRPVMCPRP, the “shrunken log2 fold change” value was found to be 0.218.

For the sequence RRIRHRPPRLPRPRPRPLMGPRP, the “shrunken log2 fold change” value amounted to 0.11.

Regarding RRIRSRPPRLPRPRPRPKYEPRP, the “shrunken log2 fold change” value is -0.147.

With RRIRSRPPRLPRPRPRPIPMPRP, the “shrunken log2 fold change” value was -0.0186.

As to RRIRSRPPRLPRPRPRPRCAPRP, the “shrunken log2 fold change” value was found to be 0.509.

Regarding RRIRCRPPRLPRPRPRPKLGPRP, the “shrunken log2 fold change” value came out at 0.0989.

Consider RRIRWRPPRLPRPRPRPWYIPRP, for which the “shrunken log2 fold change” value is -0.172.

On to RRIRNRPPRLPRPRPRPNGPPRP, for which the “shrunken log2 fold change” value was -0.015.

Regarding RRIRNRPPRLPRPRPRPVAHPRP, the “shrunken log2 fold change” value was -0.0475.

Take RRIRTRPPRLPRPRPRPRDIPRP: the “shrunken log2 fold change” value is -0.0222.

On to RRIRFRPPRLPRPRPRPCNRPRP, for which the “shrunken log2 fold change” value was -0.111.

On to RRIRWRPPRLPRPRPRPQGEPRP, for which the “shrunken log2 fold change” value worked out at 0.29.

With RRIRHRPPRLPRPRPRPSYQPRP, the “shrunken log2 fold change” value is -1.14.

On to RRIRLRPPRLPRPRPRPQNEPRP, for which the “shrunken log2 fold change” value was -0.459.

For RRIRARPPRLPRPRPRPKPRPRP, the “shrunken log2 fold change” value worked out at 1.9.

Regarding RRIRPRPPRLPRPRPRPTFAPRP, the “shrunken log2 fold change” value came to 0.409.

On to RRIRERPPRLPRPRPRPAKHPRP, for which the “shrunken log2 fold change” value is -0.107.

As to RRIRGRPPRLPRPRPRPQMFPRP, the “shrunken log2 fold change” value came to 0.612.

Consider RRIRDRPPRLPRPRPRPNKFPRP, for which the “shrunken log2 fold change” value was -0.293.

Take RRIRGRPPRLPRPRPRPEYDPRP: the “shrunken log2 fold change” value came to 0.0795.

For the sequence RRIRFRPPRLPRPRPRPPGVPRP, the “shrunken log2 fold change” value amounted to 0.168.

For the sequence RRIRGRPPRLPRPRPRPAEYPRP, the “shrunken log2 fold change” value is -0.187.

For the sequence RRIRMRPPRLPRPRPRPPKMPRP, the “shrunken log2 fold change” value stood at 0.477.

Regarding RRIRRRPPRLPRPRPRPHTFPRP, the “shrunken log2 fold change” value was -0.108.

RRIRARPPRLPRPRPRPCVIPRP: the “shrunken log2 fold change” value turned out to be 0.158.

As to RRIRNRPPRLPRPRPRPSKEPRP, the “shrunken log2 fold change” value was -0.0243.

For RRIRERPPRLPRPRPRPGVGPRP, the “shrunken log2 fold change” value was determined as 0.428.

With RRIRIRPPRLPRPRPRPNLDPRP, the “shrunken log2 fold change” value was -0.564.

On to RRIRVRPPRLPRPRPRPVDEPRP, for which the “shrunken log2 fold change” value was 0.144.

Take RRIRVRPPRLPRPRPRPPWYPRP: the “shrunken log2 fold change” value is 0.0253.

Turning to RRIRDRPPRLPRPRPRPVMMPRP, the “shrunken log2 fold change” value is -0.168.

For RRIRVRPPRLPRPRPRPILFPRP, the “shrunken log2 fold change” value was -0.395.

Regarding RRIRNRPPRLPRPRPRPLMTPRP, the “shrunken log2 fold change” value was 0.0149.

For RRIRHRPPRLPRPRPRPWMDPRP, the “shrunken log2 fold change” value came out at 0.113.

With RRIRYRPPRLPRPRPRPIAIPRP, the “shrunken log2 fold change” value is -0.217.

With RRIRTRPPRLPRPRPRPASFPRP, the “shrunken log2 fold change” value is 0.133.

As for RRIRDRPPRLPRPRPRPYAKPRP, the “shrunken log2 fold change” value worked out at 0.019.

As for RRIRFRPPRLPRPRPRPLVCPRP, the “shrunken log2 fold change” value is -0.365.

For the sequence RRIRWRPPRLPRPRPRPVQSPRP, the “shrunken log2 fold change” value came to 0.0186.

Consider RRIRYRPPRLPRPRPRPHYTPRP, for which the “shrunken log2 fold change” value was -0.936.

For RRIRRRPPRLPRPRPRPVNFPRP, the “shrunken log2 fold change” value is -0.0106.

With RRIRGRPPRLPRPRPRPLQNPRP, the “shrunken log2 fold change” value is 0.693.

For RRIRPRPPRLPRPRPRPDMPPRP, the “shrunken log2 fold change” value was -0.302.

Take RRIRFRPPRLPRPRPRPCLRPRP: the “shrunken log2 fold change” value is -0.205.

Take RRIRGRPPRLPRPRPRPMVSPRP: the “shrunken log2 fold change” value came out at 0.313.

RRIRYRPPRLPRPRPRPNMQPRP: the “shrunken log2 fold change” value was -0.594.

On to RRIRERPPRLPRPRPRPMMHPRP, for which the “shrunken log2 fold change” value was determined as 0.0413.

With RRIRKRPPRLPRPRPRPFMGPRP, the “shrunken log2 fold change” value amounted to 0.00448.

With RRIRWRPPRLPRPRPRPDNAPRP, the “shrunken log2 fold change” value was -0.000159.

For the sequence RRIRVRPPRLPRPRPRPRWLPRP, the “shrunken log2 fold change” value is 0.211.

Regarding RRIRPRPPRLPRPRPRPHFSPRP, the “shrunken log2 fold change” value is -0.108.

In the case of RRIRFRPPRLPRPRPRPPIPPRP, the “shrunken log2 fold change” value is 0.257.

As for RRIRLRPPRLPRPRPRPPRAPRP, the “shrunken log2 fold change” value is 0.875.

RRIRQRPPRLPRPRPRPQLWPRP: the “shrunken log2 fold change” value is -0.135.

In the case of RRIRPRPPRLPRPRPRPLYHPRP, the “shrunken log2 fold change” value is -0.514.

As for RRIRDRPPRLPRPRPRPMCRPRP, the “shrunken log2 fold change” value is -0.0461.

As to RRIRCRPPRLPRPRPRPDCDPRP, the “shrunken log2 fold change” value was -0.812.

With RRIRVRPPRLPRPRPRPHECPRP, the “shrunken log2 fold change” value is -0.0944.

RRIRIRPPRLPRPRPRPIHAPRP: the “shrunken log2 fold change” value is -0.00674.

As to RRIRYRPPRLPRPRPRPKFFPRP, the “shrunken log2 fold change” value worked out at 0.131.

Consider RRIRYRPPRLPRPRPRPKQWPRP, for which the “shrunken log2 fold change” value was 0.0575.

For the sequence RRIRPRPPRLPRPRPRPLVHPRP, the “shrunken log2 fold change” value is -0.00919.

Regarding RRIRPRPPRLPRPRPRPWRVPRP, the “shrunken log2 fold change” value worked out at 0.244.

RRIRSRPPRLPRPRPRPFGQPRP: the “shrunken log2 fold change” value was -0.197.

For the sequence RRIRERPPRLPRPRPRPDWYPRP, the “shrunken log2 fold change” value was -0.297.

For RRIRRRPPRLPRPRPRPGNMPRP, the “shrunken log2 fold change” value is -0.266.

In the case of RRIRHRPPRLPRPRPRPMMMPRP, the “shrunken log2 fold change” value was -0.0507.

On to RRIRIRPPRLPRPRPRPYIKPRP, for which the “shrunken log2 fold change” value was -0.684.

Regarding RRIRTRPPRLPRPRPRPYFNPRP, the “shrunken log2 fold change” value is -1.03.

In the case of RRIRCRPPRLPRPRPRPANSPRP, the “shrunken log2 fold change” value is -0.685.

Regarding RRIRMRPPRLPRPRPRPQWSPRP, the “shrunken log2 fold change” value is 0.0117.

For RRIRHRPPRLPRPRPRPVYSPRP, the “shrunken log2 fold change” value was -0.0167.

As to RRIRKRPPRLPRPRPRPYHKPRP, the “shrunken log2 fold change” value was 0.0411.

In the case of RRIRCRPPRLPRPRPRPHQTPRP, the “shrunken log2 fold change” value is -0.0284.

In the case of RRIRTRPPRLPRPRPRPQKQPRP, the “shrunken log2 fold change” value amounted to 0.166.

As to RRIRLRPPRLPRPRPRPPHNPRP, the “shrunken log2 fold change” value turned out to be 0.504.

Turning to RRIRQRPPRLPRPRPRPLKGPRP, the “shrunken log2 fold change” value is -0.272.

RRIRKRPPRLPRPRPRPFHLPRP: the “shrunken log2 fold change” value amounted to 0.0215.

RRIRPRPPRLPRPRPRPCKKPRP: the “shrunken log2 fold change” value was -0.0659.

Turning to RRIRYRPPRLPRPRPRPTHIPRP, the “shrunken log2 fold change” value was -1.04.

Turning to RRIRDRPPRLPRPRPRPPFIPRP, the “shrunken log2 fold change” value is -0.533.

On to RRIRRRPPRLPRPRPRPCIRPRP, for which the “shrunken log2 fold change” value was -0.135.

On to RRIRHRPPRLPRPRPRPNAPPRP, for which the “shrunken log2 fold change” value worked out at 0.0964.

Turning to RRIRVRPPRLPRPRPRPCVEPRP, the “shrunken log2 fold change” value worked out at 0.0543.

With RRIRRRPPRLPRPRPRPEDIPRP, the “shrunken log2 fold change” value was determined as 0.06.

In the case of RRIRVRPPRLPRPRPRPTLDPRP, the “shrunken log2 fold change” value came out at 0.125.

Take RRIRERPPRLPRPRPRPETRPRP: the “shrunken log2 fold change” value is -0.0227.

RRIRVRPPRLPRPRPRPALEPRP: the “shrunken log2 fold change” value worked out at 0.495.

On to RRIRHRPPRLPRPRPRPGKKPRP, for which the “shrunken log2 fold change” value is -0.0335.

Turning to RRIRLRPPRLPRPRPRPHCMPRP, the “shrunken log2 fold change” value is -0.283.

In the case of RRIRHRPPRLPRPRPRPPSIPRP, the “shrunken log2 fold change” value is -0.165.

As for RRIRWRPPRLPRPRPRPDGRPRP, the “shrunken log2 fold change” value is -0.00151.

Take RRIRCRPPRLPRPRPRPFFNPRP: the “shrunken log2 fold change” value was -0.687.

Consider RRIRERPPRLPRPRPRPDETPRP, for which the “shrunken log2 fold change” value was -0.015.

With RRIRFRPPRLPRPRPRPFGYPRP, the “shrunken log2 fold change” value was -0.113.

On to RRIRSRPPRLPRPRPRPEPVPRP, for which the “shrunken log2 fold change” value is 1.44.

With RRIRDRPPRLPRPRPRPPSQPRP, the “shrunken log2 fold change” value turned out to be 0.113.

On to RRIRNRPPRLPRPRPRPMLPPRP, for which the “shrunken log2 fold change” value stood at 0.00241.

As to RRIRMRPPRLPRPRPRPGRGPRP, the “shrunken log2 fold change” value was determined as 1.26.

For the sequence RRIRDRPPRLPRPRPRPNPPPRP, the “shrunken log2 fold change” value stood at 0.2.

In the case of RRIRCRPPRLPRPRPRPRWPPRP, the “shrunken log2 fold change” value came to 0.661.

For the sequence RRIRARPPRLPRPRPRPECCPRP, the “shrunken log2 fold change” value is 0.996.

In the case of RRIRVRPPRLPRPRPRPIHDPRP, the “shrunken log2 fold change” value is -0.0895.

On to RRIRYRPPRLPRPRPRPDFKPRP, for which the “shrunken log2 fold change” value was -0.261.

For the sequence RRIRRRPPRLPRPRPRPPHGPRP, the “shrunken log2 fold change” value was 0.596.

In the case of RRIRGRPPRLPRPRPRPPCLPRP, the “shrunken log2 fold change” value worked out at 0.503.

As for RRIRMRPPRLPRPRPRPAYRPRP, the “shrunken log2 fold change” value stood at 0.196.

In the case of RRIRDRPPRLPRPRPRPNDDPRP, the “shrunken log2 fold change” value was found to be 0.226.

For RRIRLRPPRLPRPRPRPYGAPRP, the “shrunken log2 fold change” value is -0.0327.

Regarding RRIRKRPPRLPRPRPRPYAYPRP, the “shrunken log2 fold change” value is -0.12.

Regarding RRIRKRPPRLPRPRPRPAQCPRP, the “shrunken log2 fold change” value was -0.0613.

As for RRIRKRPPRLPRPRPRPEEHPRP, the “shrunken log2 fold change” value was determined as 2.61.

As to RRIRERPPRLPRPRPRPPNLPRP, the “shrunken log2 fold change” value amounted to 0.0423.

Consider RRIRTRPPRLPRPRPRPNFRPRP, for which the “shrunken log2 fold change” value was -0.152.

For RRIRPRPPRLPRPRPRPLRQPRP, the “shrunken log2 fold change” value amounted to 0.0954.

RRIRDRPPRLPRPRPRPWCAPRP: the “shrunken log2 fold change” value is -0.0367.

For the sequence RRIRVRPPRLPRPRPRPYRIPRP, the “shrunken log2 fold change” value is 0.0112.

As for RRIRFRPPRLPRPRPRPEGVPRP, the “shrunken log2 fold change” value was -0.175.

Regarding RRIRTRPPRLPRPRPRPRDSPRP, the “shrunken log2 fold change” value stood at 0.538.

RRIRKRPPRLPRPRPRPSYHPRP: the “shrunken log2 fold change” value was 2.31.

In the case of RRIRYRPPRLPRPRPRPYMCPRP, the “shrunken log2 fold change” value was -0.0233.

For the sequence RRIRIRPPRLPRPRPRPYSVPRP, the “shrunken log2 fold change” value was -0.07.
